Assays:
MS2 coat protein = experiment: apparent KD of MS2 coat protein; higher = weaker reporter binding; settings: Eterna round: R107
Protocol: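 RNA-MaP round R107: designed RNA switches with theophylline, tryptophan, arginine or FMN aptamers are transcribed on-chip within common flanks. They are titrated with SNAP-549-labelled MS2 coat protein in RNA-MaP buffer (100 mM Tris pH 7.5, 80 mM KCl, 4 mM MgCl2), without ligand or with the indicated ligand. Median apparent KD per design.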

[1] = tested on: K4 kissing-loop RNA reporter; experiment: apparent KD of K4 kissing-loop reporter; higher = weaker reporter binding; settings: Eterna round: R107;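 also: bound reporter read as fluorescence of individual clusters on recovered sequencing chips by microscopy, with normalized cluster intensities fitted with a binding model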
Protocol: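 RNA-MaP round R107: designed RNA switches with theophylline, tryptophan, arginine or FMN aptamers are transcribed on-chip within common flanks. They are titrated with a labelled K4 kissing-loop RNA reporter in RNA-MaP buffer (100 mM Tris pH 7.5, 80 mM KCl, 4 mM MgCl2), without ligand or with the indicated ligand. Median apparent KD per design.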

[2] = input ligand: theophylline 20 uM
[3] = input ligand: theophylline 2 mM
[4] = input ligand: tryptophan 2.4 mM

| Sequence | apparent KD of MS2 coat protein (MS2 coat protein; input ligand: arginine 13.2 mM) [nM] | apparent KD of MS2 coat protein (MS2 coat protein; input ligand: none) [nM] | apparent KD of MS2 coat protein (MS2 coat protein; [2]) [nM] | apparent KD of MS2 coat protein (MS2 coat protein; [3]) [nM] | apparent KD of MS2 coat protein (MS2 coat protein; [4]) [nM] | apparent KD of K4 kissing-loop reporter ([1]; input ligand: FMN 200 uM) [nM] | apparent KD of K4 kissing-loop reporter ([1]; input ligand: arginine 13.2 mM) [nM] | apparent KD of K4 kissing-loop reporter ([1]; input ligand: none) [nM] | apparent KD of K4 kissing-loop reporter [1, 2] [nM] | apparent KD of K4 kissing-loop reporter [1, 4] [nM] |
| --- | --- | --- | --- | --- | --- | --- | --- | --- | --- | --- |
| AAAAGUGGGUCAAUUAUUUAAACUUCAGAAGGAGCGUGAUGUUUCACAGGUAGGUCGCUGAUAACAUGAGGAUCACCCAUGUAUU [JR_ExcArginiA_Sub007] | 30.8 | 47.4 | 59.8 | 54.4 | 47 |  |  |  |  |  |
| AAAAUAAAACGUGCAAAAUCCUAAUGUGAAGGAGCGCACGAAAGUGCAGGUAGGUCGCACAUGAGGAUCACCCAUGUAGCACGAA [MAT - Exclusion Arginine A - Mod of Eli - D1] | 60.1 | 300 | 221 | 367 | 230 |  |  |  |  |  |
| AAAAUAAAUAAAACACGUAACAUGAAGGAUACCAGACCGGAAACGGUCCCUUGGCAGCCUCUACAUGAGGAUCACCCAUGUCGUG [Mat - Same State Theophlline A - Mod of Eli - D18] | 110 |  | 141 |  | 258 |  |  |  |  |  |
| AAAAUAAAUAAAACGGGUAACAUGAAGGAUACCAGCCAGGAAACUGGCCCUUGGCAGCCUCUACAUGAGGAUCACCCAUGUCCCG [Mat - Same State Theophlline A - Mod of Eli - D14] | 169 |  | 142 |  | 454 |  |  |  |  |  |
| UUUCGGUUCUGAGGAUAUUCGGACAAAUAUAGUGAUGUUGUAUAAGGAGGAGGGUGUUGGCAGUGCGGAGAAGGCAGACCACGAU [ExFMNB.X] |  |  |  |  |  | 869 | 720 | 747 | 575 | 621 |
| UUUCGUCUCUGAGGAUAUCAGACGAGAGUGAUGUUCUCCCAAAGCCCAGUGAUGUUGGAUGCUAUCUGAGAAGGCAGUGGGCGAA [Same State FMN B GF 12] |  |  |  |  |  | 227 | 584 | 554 | 634 | 508 |
| UUUCGUUGAAGUGAUACCAGACUUGAAAGUGAUGUUUUCCAAUAAUUUAAAUUUUUAGCUGUCCCUUGGCAGCACAGUUUAUUUA [JR_Nu_ExcTheophyB_Sub025] |  |  |  |  |  | 210 | 363 | 275 | 401 | 181 |
| UUUCUUUUUUUGAUGUUUUUUGUAUAAUGGCAGGAUAUCGUAGAUGCGAGAAGGGCUUUUAUGCGUUAUGAGUGAUGUUUGUAGG [aaxazvmullin] |  |  |  |  |  | 324 | 270 | 320 | 272 | 256 |
| UUUGGUUUCUCGGCCGCCACUCGUGGGAAAUGGGCCUCAGGGAUAUAGUGAUGUUAUGUAAAGAAGAGGACCGGGAGAAGGAAGG [ExTryptoB.Dl] |  |  |  |  |  | 300 | 253 | 306 | 208 | 233 |
| UUUGUAUAGGGAAGGAGCGUGAAUGAGAAAGAAUAUAGUGAUGUUAUAUAGAAGAAAGAAUCACAGGUAGGUCGCCCGGAGGAGG [SSArgB.G] |  |  |  |  |  | 484 | 363 | 371 | 482 | 337 |
| UUUGUAUAGGGAAGGAGCGUGAAUGAUAAUGAAUAUAGUGAUGUUAUAUAUAAGAAAGAAUCACAGGUAGGUCGCCCGGAGGAGG [SSArgB.J] |  |  |  |  |  | 612 | 410 | 668 | 1350 | 428 |
| UUUUAAAUGUCUGAUACCAGAGAAAAUAUAUGUAGUGAUGUUAUAUACAAAUUGAAUAAGCUCCCUUGGCAGCAGUAUUAAUUUU [AstrosExc-TheB#11] |  |  |  |  |  | 493 | 643 | 713 | 662 | 493 |
| UUUUAAAUGUCUGAUACCAGAGAAAAUUUAUGUAGUGAUGUUAUAUACAAAAUAAAUAAGCUCCCUUGGCAGCAGUAUUAAUUUU [AstrosExc-TheB#7] |  |  |  |  |  | 465 | 449 | 465 | 357 | 442 |
| UUUUAUUAAUACUUCUAGUGAUGUUAGAUACGAGGACCGGUACGGCCGCCACUCGCUUAUUGGUUUAUAUAUUUUAUAUUCUUUA [JR_SSTryptoA_Sub014] |  |  |  |  |  | 327 | 362 | 342 | 369 | 281 |
| UUUUGGUUCUGAGGAUAUUCGAAGAAAUAUAGUGAUGUUAUAUAAGGAGGAGGAUGUAGGGAGGAAGGAGAAGGCAGAAGAGGAG [ExFMNB.J] |  |  |  |  |  | 1040 | 915 | 880 | 377 | 480 |
| UUUUUGGAGAAUUAUAGUGAUGUUAUGAAGAAGGAUAUCUAAAGAUGGAGAAGGUUUAAUAGUUAAGGGAUGGAGGGUGGGUGGG [ExFMNA.P] |  |  |  |  |  | 282 | 155 | 293 | 221 | 194 |
| UUUUUGGAGAAUUAUAGUGAUGUUAUGAAGGAGGAUAUCUGGAGAUGGAGAAGGCCUAGUGGCUCAGGGAUGGAGGGUGGGUGGG [ExFMNA.Y] |  |  |  |  |  | 704 | 411 | 487 | 655 | 301 |
